Source: US7045604B2, “Family of genes encoding apoptosis-related peptides, peptides encoded thereby and methods of use thereof” (Tanox, Inc., priority 1996, dated 2006)
Numbered stars: 1 amine (or outer) side, 2 acyl side, 3 side chain; on linkers, the order of the positions; unused ones are H or OH. Bridge positions count the residues as written; N and C are the ends. Square brackets hold non-standard residues; d marks the D form. Peptide text beside a SMILES is read from it. I, II: the chains in the order shown. Actinocin(9to1) = Cc1c2oc3c(C)ccc(C(=O)[*:1])c3nc-2c(C(=O)[*:2])c(N)c1=O; NMeV = CN[C@H](C(=O)O)C(C)C; Sar = CNCC(=O)O

How the values were obtained:
msarp1 = msarp1 expression in serum deprived exponentially growing 10T1/2 cells (Northern hybridization); type: cell-based, mouse; settings: cells grown in serum free media supplemented with TPA
Method: Isolated DNA fragments were labeled with [^32P]dCTP (3000 Ci/mmol, Amersham) in a random priming reaction according to Feinberg and Vogelstein, (1982), supra. Hybridization was carried out according to the standard protocol described in Sambrook et al. (1989), supra. The membranes were washed two times with 2×SSC at room temperature for 30 minutes. Following two additional washes at 56° C. in 0.1×SSC, 0.1% SDS, the membranes were autoradiographed onto a Kodak X-Omat® films.
Since it has previously been shown that media conditioned with exponentially growing 10T1/2 cells also prevents apoptosis, we also analyzed msarp1 expression in serum deprived exponentially growing cells. RNA was isolated at different time points after removal of serum.

C3H/10T1/2 cells = assay: Apoptosis of exponentially proliferating or quiescent 10T1/2 cells (adherent / non-adherent cell count); type: cell-based, mouse; settings: for apoptosis / cell death: quiescent 10T1/2 cells arrested in G0
Method: C3H/10T1/2 cells were grown in Eagle's basal medium (BME) supplemented with 10% heat-inactivated fetal bovine serum (FBS) at 37° C. in a humidified 5% CO2 atmosphere without antibiotics. Cells were plated at 2×10^3 cells/mL and fed every 3–4 days. Approximately 2 weeks after the initial seeding, the cells were completely quiescent and few if any mitotic cells were present. To analyze the effect of serum deprivation or cycloheximide treatment, the exponentially proliferating (approximately 75% confluent) or quiescent cultures were transferred to serum-free medium or medium supplemented with 10 μg/mL cycloheximide. At 24 hours, the apoptotic (i.e. non-adherent) cells and the non-apoptotic (i.e. adherent) cells were collected separately and their amounts were evaluated using a cell counter (Coulter Counter® ZM). Serum free conditioned medium was obtained after 24 hour incubation of quiescent 10T1/2 cells in BME. The RNA was isolated by the guanidine-isothiocyanate method described in Chomezinski and Sacchi (1987) Anal. Biochem., 162:156–59. 20 μg samples of total RNA were subjected to electrophoresis in a 1.2% agarose formaldehyde gel. Sambrook et al. (eds) (1989).

[1] = system: MCF7 breast adenocarcinoma cell line; assay: Sensitivity of stably transfected MCF7 cells to cytotoxic stimuli; type: cell-based, human
From the text: The MCF7 breast adenocarcinoma cell line was chosen as a model to study the involvement of SARP proteins in the processes of apoptosis. The programmed cell death of these cells induced by different agents has been well characterized. Zyed et al. (1994) Cancer Res. 54:825–831. […] MCF7 cells were stably transfected with a pcDNA3 mammalian expression vector bearing full length msarp1 or hsarp2. The transfectants expressing msarp1 and hsarp2 were selected by Northern hybridization. […] Hannun and Obeid (1995) T. Biochem. Sci. 20:73–7; and Kolesnick and Fuks (1995) J. Exp. Med. 181:1949–52.
(§1) Transfection of MCF7. MCF7 cells were transfected with the pcDNA3 mammalian expression vector (Invitrogen), containing either no insert, msarp1, or hsarp2 cDNAs, using LipofectAMINE reagent (Gibco) according to manufacturer's protocol. Stable transfectants and two-three weeks later single cell originated clones were selected with 1 mg/ml G418 and expression of the respective genes was confirmed by Northern hybridization.

β-catenin = assay: Intracellular β-catenin in MCF7 transfectants (Western immunoblot, immunohistochemistry); type: cell-based, human; settings: for intracellular concentration of β-catenin: Western immunoblot, MCF7 transfectants vs pcDNA3 control
Method: To determine whether SARPs interfered with Wnt-frizzled protein interaction, the expression of β-catenin in MCF7-transfectants was compared. The experiment was performed as follows. Cell Cultures. MCF7 human breast adenocarcinoma cells were plated at 2×10^5 cells/ml and cultured in Modified Eagle Medium (MEM) supplemented with 10% FBS. Serum free conditioned medium was obtained after 24 hour incubation of quiescent MCF7 cells in MEM.
as §1
Immunohistochemistry. Paraformaldehyde-fixed transfected MCF7 cells grown on 4-well Lab-Tek® chamber slides were probed by anti-β-catenin monoclonal IgG (Transduction Laboratories). Staining was performed by avidin-biotin-peroxydase system (Vector Laboratories) using diaminobenzidine as a substrate. IgG isolated from preimmune serum was used as a negative control.
Western Immunoblot. For Western analysis the samples of conditioned media were concentrated using CENTRIPREP®-10 concentrators (AMICON). Cells were harvested in extraction buffer consisting of 20 mM tris-HCl (pH 7.8), 5 mM MgCl2, 250 mM sucrose, 1% NP40. After 1 hour incubation on ice extracts were clarified by centrifugation. Protein concentrations of the cellular extracts were determined using DC Protein Assay kit (Bio Rad). Equal amount of proteins were subjected to SDS/PAGE (Sambrook, J., et al. (1989) Molecular Cloning: A Laboratory Manual (Second ed.) (CSHL Press), transferred onto nitrocellulose membranes, and probed with the anti-GST-mSARP1 polyclonal affinity purified IgG (1 μg/mL) or anti-β-catenin monoclonal IgG (Transduction Laboratories).

[2] = system: MCF7 breast carcinoma cells; assay: Viability / apoptosis of MCF7 cells transfected with hsarp2 in pcDNA3; type: cell-based, human
Method: The NotI/XbaI fragment of hsarp2 was inserted into the NotI/XbaI sites of the mammalian expression vector pcDNA3 (Invitrogen). MCF7 breast carcinoma cells were transfected with this construct using LipofectAMINE reagent (Gibco BRL) according to manufacturer's protocol. The percentage of living cells was estimated by counting the relative amount of adherent cells using a Coulter Counter® (NZ). […] The cells were also treated with hTNF (50 ng/ml) and adriamycin (1 μg/ml). The results obtained are depicted in FIG. 6.

CCCCCCCCCCCCCC(=O)O[C@@H]1[C@@H](C)[C@@]2(O)[C@@H](C=C(CO)C[C@]3(O)C(=O)C(C)=C[C@@H]23)[C@H]2C(C)(C)[C@]12OC(C)=O [TPA]
induction of msarp1 message (msarp1): No induction of msarp1

Cc1c2oc3c(C)ccc(C(=O)N[C@@H]4C(=O)N[C@H](C(C)C)C(=O)N5CCC[C@H]5C(=O)N(C)CC(=O)N(C)[C@@H](C(C)C)C(=O)O[C@@H]4C)c3nc-2c(C(=O)N[C@@H]2C(=O)N[C@H](C(C)C)C(=O)N3CCC[C@H]3C(=O)N(C)CC(=O)N(C)[C@@H](C(C)C)C(=O)O[C@@H]2C)c(N)c1=O [actinomycin D] (I: T[dV]P[Sar][NMeV] / II: T[dV]P[Sar][NMeV]; ester I:1-I:C, II:1-II:C; linker I:N-II:N via Actinocin(9to1))
apoptosis / cell death (C3H/10T1/2 cells): Apoptosis of G0 is also induced

α-amanitin
apoptosis / cell death (C3H/10T1/2 cells): Apoptosis of G0 is also induced

COc1ccc(C[C@H](N)C(=O)N[C@H]2[C@@H](O)[C@H](n3cnc4c(N(C)C)ncnc43)O[C@@H]2CO)cc1 [puromycin]
apoptosis / cell death (C3H/10T1/2 cells): Apoptosis of G0 is also induced

C[C@@H]1C[C@@H]([C@H](O)CC2CC(=O)NC(=O)C2)C(=O)[C@@H](C)C1 [cycloheximide]
apoptosis (C3H/10T1/2 cells; exponentially proliferating 10T1/2 cells, serum deprivation): apoptosis is delayed | apoptosis / cell death (C3H/10T1/2 cells): rapidly induces death

B1: mSARP1: mouse secreted apoptosis related protein of 295 amino acids encoded by msarp1, SEQ. ID. NO: 2 (protein)
chain: MPRGPASLLLLVLASHCCLGSARGLFLFGQPDFSYKRTNCKPIPANLQLCHGIEYQNMRLPNLLGHETMKEVLEQAGAWIPLVMKQCHPDTKKFLCSLFAPVCLDDLDETIQPCHSLCVQVKDRCAPVMSAFGFPWPDMLECDRFPQDNDLCIPLASSDHLLPATEEAPKVCEACKTKNEDDNDIMETLCKNDFALKIKVKEITYINRDTKIILETKSKTIYKLNGVSERDLKKSVLWLKDSLQCTCEEMNDINAPYLVMGQKQGGELVITSVKRWQKGQREFKRISRSIRKLQC
cell sensitivity to apoptosis induced by TNF [1]: higher resistance | cell sensitivity to apoptosis induced by ceramide [1]: higher resistance | growth rate and cell cycle vs parental cells [1]: not significantly different | intracellular concentration of β-catenin (β-catenin): not sensitive enough to discern a significant difference | concentration of β-catenin (β-catenin; immunohistochemistry, MCF7 transfectants): higher concentration of β-catenin

B2: hSARP2: human secreted apoptosis related protein of 314 amino acids encoded by hsarp2 cDNA, SEQ ID NO: 18 (protein)
chain: SEYDYVSFQSDIGPYQSGRFYTKPPQCVDIPADLRLCHNVGYKKMVLPNLLEHETMAEVKQQASSWVPLLNKNCHAGTQVFLCSLFAPVCLDRPIYPCRWLCEAVRDSCEPVMQFFGFYWPEMLKCDKFPEGDVCIAMTPPNPTEASKPQGTTVCPPCDNELKSEAIIEHLCASEFALRMKIKEVKKENGDKKIVPKKKKPLKLGPIKKKDLKKLVLYLKNGADCPCHQLDNLSHHFLIMGRKVKSQYLLTAIHKWDKKNKEFKNFMKKMKNHECPTFQSVFK
percentage of viable cells ([2]; MCF7 transfected with pcDNA3-hsarp2, adherent cells counted): decrease in the percentage of viable cells | programmed cell death ([2]; breast carcinoma cell line, increased expression of hsarp2, dose dependent): increase programmed cell death | percentage of cells undergoing apoptosis in culture ([2]; hsarp2 in expression vector transfected into human cell lines): increases | cell sensitivity to apoptosis induced by TNF [1]: sensitized the cells to apoptosis | cell sensitivity to apoptosis induced by ceramide [1]: sensitized the cells to apoptosis | growth rate and cell cycle vs parental cells [1]: not significantly different | intracellular concentration of β-catenin (β-catenin): decreases the intracellular concentration of β-catenin
